Test results from article PMC5052618, “Activation of Xer-recombination at dif: structural basis of the FtsKγ–XerD interaction” (Scientific Reports, 2016).

Molecular target: T1, C-terminal domain of XerD (XerDC), as part of the XerDC-FtsKγ fusion protein (E. coli, UniProt P0A8P8 111-298)
T1 construct: XerD tyrosine recombinase, E. coli, residues 111 to 298 (C-terminal, catalytic domain); also called XerD C-terminal domain; XerD portion of XerDC–γ; source: overproduced from pBad24, purified (Ni2+ resin, HiTrap heparin HP, HiTrap Q HP)
T1 sequence (looked up): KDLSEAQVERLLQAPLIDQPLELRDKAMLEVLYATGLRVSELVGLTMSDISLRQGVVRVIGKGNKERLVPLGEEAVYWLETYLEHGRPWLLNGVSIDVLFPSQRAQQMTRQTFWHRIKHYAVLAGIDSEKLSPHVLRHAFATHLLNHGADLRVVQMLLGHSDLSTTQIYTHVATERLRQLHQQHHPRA
Assay: crystal structure; XerDC (XerD 111-298) and FtsKγ (FtsK 1261-1329) joined on one chain by a 16 amino acid linker; hanging drop, 100 mM Bicine (pH9), 10% (w/v) polyethylene glycol 8000; molecular replacement, 2.3 Å
Conditions: both partners purified

B1: FtsKγ domain, as part of the XerDC-FtsKγ fusion protein (domain or fragment, E. coli, UniProt P46889 1261-1329, looked up)
chain: GAEELDPLFDQAVQFVTEKRKASISGVQRQFRIGYNRAARIIEQMEAQGIVSEQGHNGNREVLAPPPFD
notes: FtsK DNA translocase, E. coli, residues 1261 to 1329 (γ domain, very C-terminus); In the functional rows with m4 it is the γ portion of the full length XerD-FtsKγ fusion, from which the crystallised fusion was amplified; also called γ domain of FtsK; source: overproduced from pBad24, purified (Ni2+ resin, HiTrap heparin HP, HiTrap Q HP)
binding result: binds
